Measured values: publication PMC7305327, “Repurposing type I–F CRISPR–Cas system as a transcriptional activation tool in human cells”

Target: T1, PaeCascade (type I-F Csy complex: Csy1, Csy2, Csy3, Csy4 + crRNA) (Pseudomonas aeruginosa, UniProt Q02ML9;Q02MM0;Q02MM1;Q02MM2 1-434;1-327;1-342;1-187)
T1 sequence 1: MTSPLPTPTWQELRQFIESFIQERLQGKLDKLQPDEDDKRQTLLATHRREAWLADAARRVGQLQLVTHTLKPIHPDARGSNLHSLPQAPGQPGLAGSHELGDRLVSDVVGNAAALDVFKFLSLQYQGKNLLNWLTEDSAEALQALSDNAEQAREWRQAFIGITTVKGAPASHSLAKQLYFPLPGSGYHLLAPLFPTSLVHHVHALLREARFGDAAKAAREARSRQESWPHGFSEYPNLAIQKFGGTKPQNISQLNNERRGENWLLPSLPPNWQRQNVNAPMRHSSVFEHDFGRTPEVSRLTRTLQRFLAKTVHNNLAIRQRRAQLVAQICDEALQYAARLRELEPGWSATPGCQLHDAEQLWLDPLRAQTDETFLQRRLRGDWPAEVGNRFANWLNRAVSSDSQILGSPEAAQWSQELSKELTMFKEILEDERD
T1 sequence 2: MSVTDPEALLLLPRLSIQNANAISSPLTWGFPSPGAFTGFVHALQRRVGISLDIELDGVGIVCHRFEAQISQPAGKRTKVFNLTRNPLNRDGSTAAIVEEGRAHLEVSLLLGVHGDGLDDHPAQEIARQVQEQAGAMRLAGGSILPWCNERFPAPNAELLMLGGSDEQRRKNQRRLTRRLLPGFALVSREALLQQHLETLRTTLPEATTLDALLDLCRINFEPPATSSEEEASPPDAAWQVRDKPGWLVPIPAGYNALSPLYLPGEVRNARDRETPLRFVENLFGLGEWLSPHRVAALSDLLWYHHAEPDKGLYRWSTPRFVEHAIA
T1 sequence 3: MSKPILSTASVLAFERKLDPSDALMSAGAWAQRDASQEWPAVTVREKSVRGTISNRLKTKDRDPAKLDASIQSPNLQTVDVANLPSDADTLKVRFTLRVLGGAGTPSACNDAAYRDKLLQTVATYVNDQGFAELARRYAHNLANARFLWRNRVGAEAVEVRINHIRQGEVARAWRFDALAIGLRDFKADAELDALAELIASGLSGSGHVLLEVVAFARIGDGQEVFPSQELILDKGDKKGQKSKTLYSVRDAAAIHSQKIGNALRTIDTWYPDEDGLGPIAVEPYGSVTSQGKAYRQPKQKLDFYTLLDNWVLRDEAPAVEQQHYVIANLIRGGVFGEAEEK
T1 sequence 4: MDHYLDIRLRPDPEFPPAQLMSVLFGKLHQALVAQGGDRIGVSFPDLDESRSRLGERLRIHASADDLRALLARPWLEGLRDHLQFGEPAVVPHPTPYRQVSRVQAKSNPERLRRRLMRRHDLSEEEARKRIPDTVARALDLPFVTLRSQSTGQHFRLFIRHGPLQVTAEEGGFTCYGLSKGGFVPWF
Test: EMSA; crRNA-loaded complex; 200 nM DNA; 1 mM EDTA; 50 mM HEPES-Na pH 7.0, 50 mM NaCl, 1 mM DTT, 1 mM EDTA, 10 IU RNase inhibitor, 200 nM dsDNA, 37 C 30 min; non-denaturing TBE-PAGE, GelRed stain
Details: protein: recombinant; copies: 1;1;6;1; blunt

B1: type I-F EMSA target dsDNA (dsDNA)
DNA 1: CTATCGAAGCAATACAGGTAGACGCGGACATCAAGCCCGCCGTGAAGGTGCAGCTTCTC
DNA 2: GAGAAGCTGCACCTTCACGGCGGGCTTGATGTCCGCGTCTACCTGTATTGCTTCGATAG
binding result: binds
